{
  "source": "patent US9505841B2",
  "about": "“Use of an anti-Ang2 antibody” (Samsung Electronics Co., Ltd., priority 2013, dated 2016)",
  "key": {"[1]": {"system": "human colorectal cancer cell line Colo205", "assay": "Colo205 colorectal cancer xenograft tumor growth", "assay_type": "in vivo, mouse", "conditions": "BALB/c nude mice; 10 mg/kg intraperitoneal twice a week", "experimental": "To see the tumor growth inhibitory effects of Ang2 antibody, a colorectal cancer xenograft model using a human colorectal cancer cell line Colo205 (ATCC) was employed.\nThe Colo205 cell line was cultured using 10% FBS (Gibco)-supplemented RPMI-1640 (Gibco) media. 5×10^5 of Colo205 cell line were re-suspended in 100 ul of serum-free media and then subcutaneously injected into anesthetic 4˜5-week-old BALB/c nude mice (Shanghai SLAC Laboratory Animal Co. Ltd.) anesthetized with 1-2% isoflurane. When the size of tumors reached 100˜200 mm^3, anti-Ang2 antibody (10D6) was injected at the concentration of 10 mg/kg via an intraperitoneal injection twice a week and the size of the tumors was measured.\nThe size of tumor (V) was calculated using the following formula: V=(length×width^2)/2"}, "[2]": {"system": "Vascular endothelial cells (HUVEC)", "assay": "BrdU proliferation assay, vascular endothelial cells", "assay_type": "cell-based, human", "conditions": "2 ug/ml Ang2 with 10 ug/ml antibody; 3 days", "experimental": "The measurement assay of the proliferation of vascular and lymphatic endothelial cells was conducted using a BrdU assay kit (Roche) Cell. Vascular endothelial cells of P3˜P8 (HUVEC, ATCC) or lymphatic endothelial cells (Lonza) were placed in a collagen-coated 96-well plate (BD Bioscience) at 3000˜5000 cells/well and cultured in EGM-2 media (Lonza) for 16˜24 hours. A mixture of 2 ug/ml of Ang2 (R&D systems) and 10 ug/ml of antibody 10D6 in 2% EBM media was added to the 96-well plate washed with PBS, which was then cultured for 3 days.\nFor efficiency comparison, an anti-Ang2 antibody (MEDI: Medlmmune Co.) was used. For a BrdU assay, 10 ul of BrdU solution diluted at 1:1,000 was added to each well of the plate to label the cells. The cells were cultured for 1 hour and after the removal of the culture solution, 100 ul of Fixation/Denaturation solution (Roche) was added to each well and then, removed after 30-min wait. An anti-BrdU antibody (Roche) conjugated with peroxidase was diluted in a dilution buffer (Roche) at 1:100, added to each well to react for 1 hour and then, washed four times using a washing buffer (Roche). 100 ul of a TMB substrate was added thereto to react and then, absorption was measured at 450 nm using a Microplate reader (Perkin Elmer)."}, "[3]": {"target": "T1, Ang2-Tie2 binding (Homo sapiens, UniProt O15123)", "T1 construct": "purchased R&D Systems (hTie2-Fc)", "T1 sequence (O15123 19-496)": "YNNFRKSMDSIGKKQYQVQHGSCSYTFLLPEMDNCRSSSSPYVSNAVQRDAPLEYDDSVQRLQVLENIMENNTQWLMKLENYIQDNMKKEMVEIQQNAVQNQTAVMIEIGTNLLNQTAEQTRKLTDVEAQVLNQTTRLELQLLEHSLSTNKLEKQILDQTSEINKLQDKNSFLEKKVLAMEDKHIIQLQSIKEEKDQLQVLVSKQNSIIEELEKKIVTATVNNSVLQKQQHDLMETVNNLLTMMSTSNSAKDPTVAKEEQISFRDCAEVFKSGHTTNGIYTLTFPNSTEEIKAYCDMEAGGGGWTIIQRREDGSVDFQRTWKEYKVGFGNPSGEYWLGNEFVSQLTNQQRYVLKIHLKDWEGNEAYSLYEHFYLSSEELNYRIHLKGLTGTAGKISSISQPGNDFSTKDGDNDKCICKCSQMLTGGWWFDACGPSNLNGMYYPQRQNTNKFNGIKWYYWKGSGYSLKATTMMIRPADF", "assay": "Ang2-Tie2 binding competition ELISA", "conditions": "antibody 400 nM to 0.001 nM; 400 ng/ml FLAG-tagged hAng2; hTie2-Fc coated plate", "experimental": "Ang2-Tie2 binding competition ELISA was conducted using the antibody binding to Ang2 prepared in Example 2-1 above.\nMore specifically, MaxiSorp™ flat-bottom plate (Nunc) of 96-well was coated with hTie2-Fc (R&D Systems) which is a protein bound with 4 ug (microgram)/ml of Fc of human IgG1. After that, the plate was washed five times with 0.05% (v/v) Tween-20-containing PBS (phosphate buffer saline) and then blocked with 1% (v/v) BSA (bovine serum albumin; Sigma)-containing PBS at a room temperature for 2 hour.\nFor Ang2:Tie2 competition ELISA, each anti-Ang2 antibody obtained in Example 2 was placed at various concentrations of 400 nM to 0.001 nM into each well coated with the hTie-2/Fc fusion protein along with 1% (v/v) BSA and 400 ng/ml of a FLAG-tagged hAng2 and then, the plate was allowed to react at a room temperature for 2 hours and washed five times with PBST. […] Lastly, 100 ul (microliter) of TMB substrate (Cell Signaling) was added to each well of the plate to induce color development for 3 min. and then, the reaction was ceased by the addition of 100 ul of Stop solution (Cell Signaling) and OD450 values were measured on a plate reader (Molecular Devices). […]"}},
  "data": [
    {"molecule": "10D6: mouse anti-Ang2 monoclonal antibody from hybridoma KCLRF-BP-00295; heavy chain variable region SEQ ID NO: 7, light chain variable region SEQ ID NO: 9 (antibody, V domains shown, Synthetic (Heavy chain variable region of an anti-Ang2 antibody); Synthetic (Light chain variable region of anti-Ang2 antibody)) VH: DVQLQESGPGLVKPSQSLSLTCTVTGYSITSDYAWNWIRQFPGNKLEWMGYINYSGNTDYNPSLKSRSSITRDTSKNQFFLQLNSVTTGDTATYYCARGNFEGAMDYWGQGTSVTVSS VL: SIVMTQTPKFLLVSAGDRVTITCKASQSVSNDVAWYQQKPGQSPKLLIYYASNRYPGVPDRFTGSGYGTDFTFTISTVQAEDLAVYFCQQDYSSPWTFGGGTKLEIK", "values": [
      {"measurement": "tumor growth in Colo205 xenograft", "setting": "[1]", "result": "inhibited the growth of colorectal cancer"},
      {"measurement": "growth of vascular endothelial cells (BrdU)", "setting": "[2]", "result": "increased"},
      {"measurement": "inhibition of Ang2-Tie2 binding", "setting": "[3]", "result": "did not inhibit"}
    ]}
  ]
}
